Measured values from paper PMC11355779.

Columns and labels:
[1] = target: ClC-3c, C-terminally GFP-tagged (mouse)
[2] = target: ClC-3c, C-terminally GFP-tagged (mouse); test: FRET or BRET; FLIM-FRET in co-transfected HEK293T cells 24 h after transfection; GFP donor (488 nm), mCherry acceptor; efficiency from the donor lifetime (phasor plot) against donor-only cells

Chain of ClC-3c, C-terminally GFP-tagged (mouse) (P51791 whole entry): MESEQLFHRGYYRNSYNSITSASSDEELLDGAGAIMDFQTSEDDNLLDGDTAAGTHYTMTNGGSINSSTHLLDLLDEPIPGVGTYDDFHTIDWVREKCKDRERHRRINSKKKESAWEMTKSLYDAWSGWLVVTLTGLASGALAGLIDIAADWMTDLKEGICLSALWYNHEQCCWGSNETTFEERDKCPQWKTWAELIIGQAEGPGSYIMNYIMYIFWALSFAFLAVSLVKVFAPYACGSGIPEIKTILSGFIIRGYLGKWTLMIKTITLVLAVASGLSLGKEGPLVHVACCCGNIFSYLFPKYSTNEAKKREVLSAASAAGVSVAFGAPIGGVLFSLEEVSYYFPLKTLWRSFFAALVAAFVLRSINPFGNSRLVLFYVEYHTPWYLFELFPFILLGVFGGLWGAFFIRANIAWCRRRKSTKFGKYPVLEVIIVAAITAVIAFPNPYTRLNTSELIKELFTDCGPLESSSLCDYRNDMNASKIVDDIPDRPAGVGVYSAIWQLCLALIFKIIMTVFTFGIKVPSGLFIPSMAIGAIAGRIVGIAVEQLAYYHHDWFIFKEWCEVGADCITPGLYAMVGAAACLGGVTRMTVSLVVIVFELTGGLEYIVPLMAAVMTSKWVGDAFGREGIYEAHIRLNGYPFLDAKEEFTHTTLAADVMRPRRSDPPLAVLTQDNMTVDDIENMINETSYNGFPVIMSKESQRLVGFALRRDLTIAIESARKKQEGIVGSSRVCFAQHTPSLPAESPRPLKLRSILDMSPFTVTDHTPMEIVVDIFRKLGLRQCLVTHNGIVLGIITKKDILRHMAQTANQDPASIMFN

In the case of “TMEM9 Domain Family Member B (TMEM9B), C-terminally mCherry-tagged (from UniProt Q9JJR8 35-199) (natural protein)”, the fast time constant of ClC-3 current activation in HEK cells co-transfected with TMEM9B (double exponential fit, 500 ms pulses) [1] is reported as 21 ms, the reduction of ClC-3 activity (whole-cell currents) in HEK cells by co-expression of TMEM9B [1] is reported as 70% and the slow time constant of ClC-3 current activation in HEK cells co-transfected with TMEM9B (double exponential fit, 500 ms pulses) [1] is reported as 120 ms. It also gave an FRET efficiency [2] of 0.17.
